# Test results: the supplement of paper PMC10724198
# ± gives the standard deviation of the averaged measurements.
# Tests used:
# [1] = tested on: Saccharomyces cerevisiae; assay: protein stability index of tFT-peptide fusion (C-terminal peptide) (PSI (0-1 scale)); higher = more stable (slower turnover)
# Experimental: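 MPS profiling in S. cerevisiae of the tFT-X12 degron library: putative degron peptides plus stable controls, 12 aa, fused to the C-terminus of a sfGFP-mCherry timer. Cells are FACS-sorted into 8 mCherry/sfGFP bins and deep-sequenced. PSI runs from 0 (unstable) to 1 (stable). Backgrounds are wild type, das1Δ and doa10Δ at 30 °C, and wild type, das1Δ, cdc34-1 and cdc53-1 at 37 °C; 2-3 technical replicates each.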
# [2] = tested on: Saccharomyces cerevisiae; assay: as above; conditions: genetic background: wild type; temperature: 30 C
# [3] = genetic background: cdc34-1, temperature: 37 C
# [4] = genetic background: cdc53-1, temperature: 37 C
# [5] = genetic background: das1 deletion, temperature: 30 C
# [6] = genetic background: das1 deletion, temperature: 37 C
# [7] = genetic background: doa10 deletion, temperature: 30 C
# [8] = genetic background: wild type, temperature: 30 C
# [9] = genetic background: wild type, temperature: 37 C
# 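Also: PSI is a weighted mean of sequencing reads over stability bins, variants kept only with over 10 reads, mCherry proximal and sfGFP distal, peptide attached via GGGS linker.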
Sequence,"protein stability index [1, 3]","protein stability index [1, 4]","protein stability index [1, 5]","protein stability index [1, 6]","protein stability index [1, 7]","protein stability index [1, 8]","protein stability index [1, 9]",protein stability index [2]
GGGGMGRRVGVG,0.361 ± 0.036,0.4177 ± 0.0019,0.396 ± 0.0093,0.4202 ± 0.0022,0.4009 ± 0.0015,0.398 ± 0.011,0.415 ± 0.0084,–
SYFASLLDLFTA,0.727 ± 0.062,0.77 ± 0.0079,0.66 ± 0.011,0.766 ± 0.018,0.669 ± 0.018,0.674 ± 0.012,0.759 ± 0.021,0.598 ± 0.16
PPQDQAPVGVND,0.672 ± 0.041,0.7509 ± 0.0024,0.619 ± 0.019,0.74 ± 0.0071,0.623 ± 0.03,0.644 ± 0.038,0.7007 ± 0.0022,0.474 ± 0.064
CWYVCSFWPYVV,0.366 ± 0.061,0.6476 ± 0.0021,0.548 ± 0.022,0.69 ± 0.0077,0.0885 ± 0.0085,0.089 ± 0.027,0.0762 ± 0.016,0.174 ± 0.013
CFGSALLKCWLC,0.602 ± 0.037,0.726 ± 0.018,0.665 ± 0.013,0.7708 ± 0.0038,0.299 ± 0.002,0.303 ± 0.032,0.44 ± 0.0044,0.406 ± 0.035
PLSPTNLSRLLS,0.658 ± 0.034,0.7642 ± 0.0043,0.651 ± 0.012,0.744 ± 0.0077,0.1987 ± 0.0011,0.234 ± 0.037,0.526 ± 0.033,0.339 ± 0.015
GVYRLCLLLLVY,0.0836 ± 0.015,0.107 ± 0.03,0.183 ± 0.014,0.239 ± 0.021,0.158 ± 0.0074,0.156 ± 0.026,0.237 ± 0.015,0.218 ± 0.034
FTLFFVASVLDL,0.48 ± 0.021,0.518 ± 0.01,0.378 ± 0.03,0.53241 ± 0.00048,0.358 ± 0.007,0.386 ± 0.026,0.511 ± 0.011,0.446 ± 0.0073
LGGVEDRWRTAT,0.653 ± 0.05,0.704 ± 0.0094,0.693 ± 0.032,0.7227 ± 0.0051,0.261 ± 0.016,0.296 ± 0.025,0.534 ± 0.008,0.365 ± 0.0037
HHACLLPVRKAG,0.636 ± 0.056,0.752 ± 0.012,0.6526 ± 0.00091,0.744 ± 0.0085,0.154 ± 0.007,0.187 ± 0.0086,0.404 ± 0.024,0.277 ± 0.027
VGGGGRFWVCVG,0.657 ± 0.03,0.73937 ± 0.00061,0.629 ± 0.0064,0.737 ± 0.011,0.2122 ± 0.0019,0.237 ± 0.025,0.552 ± 0.031,0.406 ± 0.04
LFFFLFSLLIFF,0.248 ± 0.019,0.25 ± 0.0039,0.349 ± 0.044,0.362 ± 0.0094,0.377 ± 0.014,0.259 ± 0.047,0.352 ± 0.011,0.301 ± 0.036
FFPSFGLFLCPV,0.431 ± 0.01,0.471 ± 0.0067,0.366 ± 0.036,0.5001 ± 0.0015,0.381 ± 0.013,0.357 ± 0.031,0.4685 ± 0.0018,0.409 ± 0.027
IRLCAASFMVVF,0.501 ± 0.025,0.55 ± 0.03,0.414 ± 0.023,0.5352 ± 0.0027,0.3904 ± 0.0034,0.405 ± 0.023,0.524 ± 0.014,0.474 ± 0.017
APLLPPALALTC,0.533 ± 0.029,0.516 ± 0.038,0.389 ± 0.034,0.5268 ± 0.0035,0.3512 ± 0.00062,0.407 ± 0.028,0.484 ± 0.02,0.505 ± 0.025
CVCLWCFLVWAR,0.307 ± 0.018,0.391 ± 0.029,0.259 ± 0.025,0.4581 ± 0.0023,0.259 ± 0.013,0.246 ± 0.027,0.436 ± 0.017,0.384 ± 0.016
PHVSALSRDPES,0.698 ± 0.038,0.728 ± 0.0092,0.649 ± 0.021,0.7247 ± 0.0027,0.65 ± 0.025,0.662 ± 0.017,0.701 ± 0.016,0.716 ± 0.018
LNQRGKRKYLIM,0.711 ± 0.058,0.751 ± 0.054,0.656 ± 0.038,0.723 ± 0.016,0.372 ± 0.012,0.412 ± 0.024,0.561 ± 0.034,0.452 ± 0.015
FVLWYFCCVGCM,0.241 ± 0.017,0.305 ± 0.018,0.232 ± 0.026,0.366 ± 0.011,0.196 ± 0.015,0.226 ± 0.03,0.342 ± 0.03,0.321 ± 0.016
LCLPLYIRILSF,0.0413 ± 0.0034,0.052 ± 0.0091,0.145 ± 0.03,0.18258 ± 1.6e-05,0.161 ± 0.0023,0.129 ± 0.016,0.126 ± 0.013,–
CGGLFDVALGVG,0.457 ± 0.031,0.5096 ± 0.0026,0.449 ± 0.01,0.522 ± 0.011,0.477 ± 0.021,0.468 ± 0.023,0.516 ± 0.0067,0.471 ± 0.027
TLSRTPVSPSAP,0.686 ± 0.051,0.738 ± 0.017,0.637 ± 0.018,0.706 ± 0.021,0.674 ± 0.032,0.6492 ± 0.0015,0.696 ± 0.022,0.7094 ± 0.0059
GWSRRFFCLFIV,0.203 ± 0.052,0.303 ± 0.0019,0.345 ± 0.041,0.4984 ± 0.0011,0.0815 ± 0.015,0.0745 ± 0.024,0.0793 ± 0.006,0.137 ± 0.002
LVSVLLLFWFLF,0.4146 ± 0.00025,0.368 ± 0.014,0.358 ± 0.05,0.515 ± 0.037,0.344 ± 0.021,0.324 ± 0.013,0.475 ± 0.017,0.394 ± 0.069
LLMWVLFDCHYS,0.39 ± 0.017,0.542 ± 0.034,0.318 ± 0.035,0.552 ± 0.011,0.306 ± 0.01,0.322 ± 0.023,0.535 ± 0.013,0.396 ± 0.012
VAVFFFCRVFFL,0.248 ± 0.062,0.339 ± 0.005,0.221 ± 0.037,0.412 ± 0.0042,0.186 ± 0.02,0.211 ± 0.024,0.318 ± 0.04,0.289 ± 0.026
TVHVIVVCRELA,0.4698 ± 0.0034,0.518 ± 0.015,0.39 ± 0.03,0.52 ± 0.017,0.201 ± 0.014,0.244 ± 0.025,0.381 ± 0.007,0.3271 ± 0.0022
CLCLICFLCWFA,0.475 ± 0.037,0.546 ± 0.012,0.408 ± 0.0097,0.514 ± 0.0052,0.387 ± 0.01,0.384 ± 0.038,0.4958 ± 0.0039,–
